According to patent US12227771B2, “Expression systems and methods of use thereof” (Janssen Pharmaceutica NV, priority 2019, dated 2025):

Target: T1, human α9α10 nAChR (Homo sapiens, UniProt Q9GZZ6+Q9UGM1)
T1 construct: expressed in transfected cells; host or cells: HEK293T
Test: FLIPR calcium assay of HEK293T cells co-transfected with α9α10 nAChR and cDNA clones, response evoked by 200 μM ACh
Assay type: cell-based
Settings: 200 μM ACh; for FLIPR Response (Fold/Baseline): 180 s; for functional expression of co-transfected α9α10 nAChR in cDNA library screen: HEK293T, 20,000 cDNA clones
Experimental: Human embryonic kidney 293T (HEK293T) cells were cultured in high glucose DMEM medium supplemented with 10% FBS, sodium pyruvate and penicillin/streptomycin. Prior to transfection, cells were seeded at ˜80-90% confluence in 384-well fluorescence imaging plate reader (FLIPR) assay plates. After a 4 hour (hr) incubation, wells of cells were individually co-transfected with human α9α10 nAChR plus one of 20,000 clones from cDNA libraries encoding most all human proteins (Origene Technologies; Rockville, Md.; Broad Institute; Cambridge, Mass.) using Fugene HD (Promega; Madison, Wis.) according to the manufacture's protocol. After two days incubation, cells were washed three times with assay buffer (137 mM NaCl, 4 mM KCl, 2 mM CaCl2, 1 mM MgCl2, 5 mM glucose, 10 mM HEPES pH7.4) and loaded with Calcium5 dye (Molecular Devices; San Jose, Calif.) and 1.25 mM probenecid for 1 hr at room temperature (RT). After three washes, the plates were placed in the FLIPR stage.
To further characterize the regulation of α9α10 nAChR expression, HEK293T cells were co-transfected with α9α10 nAChR and each of CHAT, TMIE, TMEM100, TMEM132A, TMEM132C, TMEM132D, TMEM132E and TNFRSF10A individually and in combination (Table 2).

[1] = HEK293T co-transfected with α9α10 nAChR + CHAT plus the named gene
[2] = HEK293T co-transfected with α9α10 nAChR plus the named gene

T1 sequence (Q9UGM1 23-479): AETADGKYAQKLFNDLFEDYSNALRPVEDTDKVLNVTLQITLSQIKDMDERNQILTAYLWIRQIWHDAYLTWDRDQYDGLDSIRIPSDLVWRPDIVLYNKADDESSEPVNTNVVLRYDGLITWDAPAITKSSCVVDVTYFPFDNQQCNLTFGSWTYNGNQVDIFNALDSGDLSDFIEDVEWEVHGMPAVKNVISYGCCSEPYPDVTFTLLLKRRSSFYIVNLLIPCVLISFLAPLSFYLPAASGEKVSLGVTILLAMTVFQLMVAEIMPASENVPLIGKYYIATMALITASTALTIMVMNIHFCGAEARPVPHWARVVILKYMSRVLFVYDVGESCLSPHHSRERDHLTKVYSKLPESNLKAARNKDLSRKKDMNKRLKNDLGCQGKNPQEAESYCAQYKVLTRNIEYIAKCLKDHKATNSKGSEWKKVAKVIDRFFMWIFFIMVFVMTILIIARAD
T1 sequence (Q9GZZ6 25-450): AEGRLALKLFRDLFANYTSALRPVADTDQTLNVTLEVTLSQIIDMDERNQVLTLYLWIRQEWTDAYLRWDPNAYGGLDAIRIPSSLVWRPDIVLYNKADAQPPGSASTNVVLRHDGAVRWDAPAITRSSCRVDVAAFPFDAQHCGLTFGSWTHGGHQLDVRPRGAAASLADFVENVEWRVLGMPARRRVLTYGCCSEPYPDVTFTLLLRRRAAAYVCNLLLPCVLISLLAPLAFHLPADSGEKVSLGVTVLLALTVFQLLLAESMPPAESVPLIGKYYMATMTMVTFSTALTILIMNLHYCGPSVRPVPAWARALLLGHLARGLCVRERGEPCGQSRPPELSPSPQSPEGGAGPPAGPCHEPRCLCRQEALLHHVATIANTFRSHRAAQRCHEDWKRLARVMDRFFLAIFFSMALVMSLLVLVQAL

B1: TMEM100: Transmembrane protein 100, SEQ ID NO: 9, co-transfected cDNA clone (protein, listed as Homo sapiens)
chain: MTEEPIKEILGAPKAHMAATMEKSPKSEVVITTVPLVSEIQLMAATGGTELSCYRCIIPFAVVVFIAGIVVTAVAYSFNSHGSIISIFGLVVLSSGLFLLASSALCWKVRQRSKKAKRRESQTALVANQRSLFA
**Q.** B1 was tested. Which “FLIPR Response (Fold/Baseline)” value [1] did it give?
**A.** The value was 3.0 Fold/Baseline.

**Q.** What about the “FLIPR Response (Fold/Baseline)” value [2] of the same molecule?
**A.** Its value is 0.6 Fold/Baseline.

**Q.** What about the “functional expression of co-transfected α9α10 nAChR in cDNA library screen” value of the same molecule?
**A.** Its value is “enabled functional expression”.

B2: TMEM132E: Transmembrane protein 132E, SEQ ID NO: 8, co-transfected cDNA clone (protein, listed as Homo sapiens)
chain: MAPGMSGRGGAALLCLSALLAHASGRSHPASPSPPGPQASPVLPVSYRLSHTRLAFFLREARPPSPAVANSSLQRSEPFVVFQTKELPVLNVSLGPFSTSQVVARELLQPSSTLDIPERLTVNWKVRAFIVRSHVPASQPVVQVLFYVAGRDWDDFGVTERLPCVRLHAFRDAREVKSSCRLSGGLATCLVRAELPLAWFGPPAPAAPPTARRKSPDGLEPEATGESQQAELYYTLHAPDASGGCGGSRRGAGPGVGARAESPTQHPLLRIGSISLFRPPPRRTLQEHRLDSNLMIRLPDRPLKPGEVLSILLYLAPNSSSPSSPSVEHFTLRVKAKKGVTLLGTKSRSGQWHVTSELLTGAKHSTATVDVAWAQSTPLPPREGQGPLEILQLDFEMENFTSQSVKRRIMWHIDYRGHGALPDLERAVTELTVIQRDVQAILPLAMDTEIINTAILTGRTVAIPVKVIAIEVNGLVLDISALVECESDNEDIIKVSSSCDYVFVSGKESRGSMNARVTFRYDVLNAPLEMTVWVPKLPLHIELSDARLSQVKGWRVPILPDRRSVRESEDEDEEEEERRQSASRGCTLQYQHATLQVFTQFHTTSSEGTDQVVTMLGPDWLVEVTDLVSDFMRVGDPRVAHMVDSSTLAGLEPGTTPFKVVSPLTEAVLGETLLTVTEEKVSITQLQAQVVASLALSLRPSPGSSHTILATTAAQQTLSFLKQEALLSLWLSYSDGTTAPLSLYSPRDYGLLVSSLDEHVATVTQDRAFPLVVAEAEGSGELLRAELTIAESCQKTKRKSVLATTPVGLRVHFGRDEEDPTYDYPGPSQPGPGGGEDEARGAGPPGSALPAPEAPGPGTASPVVPPTEDFLPLPTGFLQVPRGLTDLEIGMYALLGVFCLAILVFLINCIVFVLRYRHKRIPPEGQTSMDHSHHWVFLGNGQPLRVQGELSPPAGNPLETVPAFCHGDHHSSGSSQTSVQSQVHGRGDGSSGGSARDQAEDPASSPTSKRKRVKFTTFTTLPSEELAYDSVPAGEEDEEEEEDLGWGCPDVAGPTRPTAPPDLHNYMRRIKEIA
**Q.** Which “FLIPR Response (Fold/Baseline)” value [1] does the source give for B2 here?
**A.** Its value is 2.6 Fold/Baseline.

**Q.** What about the “FLIPR Response (Fold/Baseline)” value [2] of the same molecule?
**A.** The value was 0.7 Fold/Baseline.

**Q.** And the “functional expression of co-transfected α9α10 nAChR in cDNA library screen” value?
**A.** The value was “enabled functional expression”.

B3: TMEM132D: Transmembrane protein 132D, SEQ ID NO: 7, co-transfected cDNA clone (protein, listed as Homo sapiens)
chain: MCPSEMGTLWHHWSPVLISLAALFSKVTEGRGILESIQRFSLLPTYLPVTYHINNADVSFFLKEANQDIMRNSSLQSRVESFLIYKSRRLPVLNASYGPFSIEQVVPQDLMLPSNPFGFTNKFSLNWKLKAHILRDKVYLSRPKVQVLFHIMGRDWDDRSAGEKLPCLRVFAFRETREVRGSCRLQGDLGLCVAELELLSSWFSPPTVVAGRRKSVDQPEGTPVELYYTVHPGGERGDCVREDARRSNGIRTGHSDIDESGPPLQRIGSIFLYQTHRKPSLRELRLDNSVAIHYIPKTVRKGDVLTFPVSISRNSTEDRFTLRAKVKKGVNIIGVRASSPSIWDVKERTDYTGKYAPAVIVCQKKAAGSENSADGASYEVMQIDVEVEEPGDLPATQLVTWQVEYPGEITSDLGVSKIYVSPKDLIGVVPLAMEAEILNTAILTGKTVAVPVKVVSVEDDGTVTELLESVECRSSDEDVIKVSDRCDYVFVNGKEMKGKVNVVVNFTYQHLSSPLEMTVWVPRLPLQIEVSDTELNQIKGWRVPIVSSRRPAGDSEEEEDDERRGRGCTLQYQHAMVRVLTQFVAEAAGPGGHLAHLLGSDWQVDITELINDFMQVEEPRIAKLQGGQILMGQELGMTTIQILSPLSDTILAEKTITVLDEKVTITDLGVQLVTGLSLSLQLSPGSNRAIFATAVAQELLQRPKQEAAISCWVQFSDGSVTPLDIYDGKDFSLMATSLDEKVVSIHQDPKFKWPIIAAETEGQGTLVKVEMVISESCQKSKRKSVLAVGTANIKVKFGQNDANPNTSDSRHTGAGVHMENNVSDRRPKKPSQEWGSQEGQYYGSSSMGLMEGRGTTTDRSILQKKKGQESLLDDNSHLQTIPSDLTSFPAQVDLPRSNGEMDGNDLMQASKGLSDLEIGMYALLGVFCLAILVFLINCVTFALKYRHKQVPFEEQEGMSHSHDWVGLSNRTELLENHINFASSQDEQITAIDRGMDFEESKYLLSTNSQKSINGQLFKPLGPIIIDGKDQKSEPPTSPTSKRKRVKFTTFTAVSSDDEYPTRNSIVMSSEDDIKWVCQDLDPGDCKELHNYMERLHENV
**Q.** What does the source list for B3?
**A.** FLIPR Response (Fold/Baseline) [1]: 2.6 Fold/Baseline; FLIPR Response (Fold/Baseline) [2]: 0.4 Fold/Baseline; functional expression of co-transfected α9α10 nAChR in cDNA library screen: enabled functional expression
